Tested on: Escherichia coli TOP10
Assay: shrunken log2 fold change of peptide-encoding DNA abundance (4.5 h post-induction vs induction); higher = less antimicrobial activity (less host growth inhibition)
Conditions: time post-induction: 4.5 h; library: site-saturation at positions 5, 18, 19, 20
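Also: peptides expressed intracellularly from a pBAD plasmid library in pooled LB shake-flask culture, induced with 0.3% L-arabinose, DNA abundance read by NGS, three biological replicates, DESeq2 with apeglm shrinkage.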

Sequence | shrunken log2 fold change
RRIRDRPPRLPRPRPRPAEIPRP | 0.184
RRIRDRPPRLPRPRPRPAFNPRP | -0.223
RRIRDRPPRLPRPRPRPAHAPRP | 0.0741
RRIRDRPPRLPRPRPRPAIMPRP | 0.373
RRIRDRPPRLPRPRPRPAIVPRP | 0.41
RRIRDRPPRLPRPRPRPAIWPRP | 0.24
RRIRDRPPRLPRPRPRPAKSPRP | -0.0126
RRIRDRPPRLPRPRPRPALCPRP | 0.225
RRIRDRPPRLPRPRPRPALHPRP | 0.438
RRIRDRPPRLPRPRPRPAMAPRP | 0.575
RRIRDRPPRLPRPRPRPAMCPRP | 0.531
RRIRDRPPRLPRPRPRPANDPRP | -0.176
RRIRDRPPRLPRPRPRPANWPRP | 0.239
RRIRDRPPRLPRPRPRPAPSPRP | 0.367
RRIRDRPPRLPRPRPRPAQNPRP | 0.308
RRIRDRPPRLPRPRPRPARFPRP | 0.446
RRIRDRPPRLPRPRPRPATRPRP | 0.701
RRIRDRPPRLPRPRPRPAWDPRP | 0.4
RRIRDRPPRLPRPRPRPAWPPRP | 0.815
RRIRDRPPRLPRPRPRPAYIPRP | -0.0656
RRIRDRPPRLPRPRPRPAYPPRP | 0.147
RRIRDRPPRLPRPRPRPAYSPRP | 0.0295
RRIRDRPPRLPRPRPRPCAIPRP | 0.029
RRIRDRPPRLPRPRPRPCALPRP | -0.0616
RRIRDRPPRLPRPRPRPCAQPRP | 1.19

Sequence | shrunken log2 fold change
RRIRDRPPRLPRPRPRPCASPRP | -0.0652
RRIRDRPPRLPRPRPRPCCDPRP | 0.655
RRIRDRPPRLPRPRPRPCCTPRP | 0.149
RRIRDRPPRLPRPRPRPCDQPRP | 0.0112
RRIRDRPPRLPRPRPRPCEPPRP | 0.194
RRIRDRPPRLPRPRPRPCEQPRP | 0.0856
RRIRDRPPRLPRPRPRPCFAPRP | 0.512
RRIRDRPPRLPRPRPRPCHHPRP | -0.0426
RRIRDRPPRLPRPRPRPCITPRP | -0.128
RRIRDRPPRLPRPRPRPCIWPRP | 0.033
RRIRDRPPRLPRPRPRPCLLPRP | 0.491
RRIRDRPPRLPRPRPRPCLYPRP | 0.0504
RRIRDRPPRLPRPRPRPCMCPRP | -0.0426
RRIRDRPPRLPRPRPRPCMPPRP | 0.0198
RRIRDRPPRLPRPRPRPCNQPRP | -0.285
RRIRDRPPRLPRPRPRPCPLPRP | -0.0882
RRIRDRPPRLPRPRPRPCRPPRP | 0.0754
RRIRDRPPRLPRPRPRPCSEPRP | 0.283
RRIRDRPPRLPRPRPRPCSIPRP | -0.0309
RRIRDRPPRLPRPRPRPCSMPRP | -0.0575
RRIRDRPPRLPRPRPRPCTCPRP | -0.198
RRIRDRPPRLPRPRPRPCTFPRP | -0.0767
RRIRDRPPRLPRPRPRPCVVPRP | -0.00921
RRIRDRPPRLPRPRPRPCYRPRP | -0.417
RRIRDRPPRLPRPRPRPDCAPRP | 1.41

Sequence | shrunken log2 fold change
RRIRDRPPRLPRPRPRPDDIPRP | -0.00277
RRIRDRPPRLPRPRPRPDFTPRP | -0.0299
RRIRDRPPRLPRPRPRPDGKPRP | 0.00996
RRIRDRPPRLPRPRPRPDHIPRP | -0.0651
RRIRDRPPRLPRPRPRPDIDPRP | -0.012
RRIRDRPPRLPRPRPRPDKKPRP | 0.0252
RRIRDRPPRLPRPRPRPDMLPRP | 0.00888
RRIRDRPPRLPRPRPRPDNMPRP | 0.0341
RRIRDRPPRLPRPRPRPDNRPRP | 0.147
RRIRDRPPRLPRPRPRPDPEPRP | 0.0311
RRIRDRPPRLPRPRPRPDPMPRP | 0.0611
RRIRDRPPRLPRPRPRPDPNPRP | 0.00812
RRIRDRPPRLPRPRPRPDPPPRP | 0.627
RRIRDRPPRLPRPRPRPDPRPRP | 0.0663
RRIRDRPPRLPRPRPRPDPWPRP | 0.295
RRIRDRPPRLPRPRPRPDRFPRP | 0.0112
RRIRDRPPRLPRPRPRPDRKPRP | -0.055
RRIRDRPPRLPRPRPRPDRQPRP | 0.0286
RRIRDRPPRLPRPRPRPDSGPRP | -0.00436
RRIRDRPPRLPRPRPRPDTDPRP | 0.0647
RRIRDRPPRLPRPRPRPDVGPRP | 0.232
RRIRDRPPRLPRPRPRPDVNPRP | 0.209
RRIRDRPPRLPRPRPRPDWNPRP | -0.0851
RRIRDRPPRLPRPRPRPDYYPRP | 0.00235
RRIRDRPPRLPRPRPRPEAIPRP | 0.0379

Sequence | shrunken log2 fold change
RRIRDRPPRLPRPRPRPEARPRP | 1.96
RRIRDRPPRLPRPRPRPECDPRP | 1.39
RRIRDRPPRLPRPRPRPECLPRP | 0.0572
RRIRDRPPRLPRPRPRPECNPRP | 0.741
RRIRDRPPRLPRPRPRPEDMPRP | 1.81
RRIRDRPPRLPRPRPRPEDSPRP | 0.882
RRIRDRPPRLPRPRPRPEDTPRP | 0.509
RRIRDRPPRLPRPRPRPEGEPRP | -0.0124
RRIRDRPPRLPRPRPRPEHLPRP | -0.00213
RRIRDRPPRLPRPRPRPEIHPRP | 0.597
RRIRDRPPRLPRPRPRPEIKPRP | 1.54
RRIRDRPPRLPRPRPRPEKMPRP | -0.00458
RRIRDRPPRLPRPRPRPEKNPRP | 0.489
RRIRDRPPRLPRPRPRPEKVPRP | -0.00893
RRIRDRPPRLPRPRPRPELDPRP | 1.47
RRIRDRPPRLPRPRPRPELVPRP | 0.00724
RRIRDRPPRLPRPRPRPELYPRP | 1.13
RRIRDRPPRLPRPRPRPEMPPRP | 0.0164
RRIRDRPPRLPRPRPRPEMYPRP | 0.363
RRIRDRPPRLPRPRPRPENRPRP | -0.0191
RRIRDRPPRLPRPRPRPENVPRP | 0.218
RRIRDRPPRLPRPRPRPEPHPRP | 0.533
RRIRDRPPRLPRPRPRPEPQPRP | 0.0781
RRIRDRPPRLPRPRPRPEPWPRP | 0.32
RRIRDRPPRLPRPRPRPEQDPRP | 1.39

Sequence | shrunken log2 fold change
RRIRDRPPRLPRPRPRPEQEPRP | -0.0197
RRIRDRPPRLPRPRPRPEQPPRP | -0.0458
RRIRDRPPRLPRPRPRPESRPRP | 0.0324
RRIRDRPPRLPRPRPRPETYPRP | 0.217
RRIRDRPPRLPRPRPRPEVHPRP | 0.168
RRIRDRPPRLPRPRPRPEVWPRP | 1.75
RRIRDRPPRLPRPRPRPFADPRP | -0.0225
RRIRDRPPRLPRPRPRPFCIPRP | -0.0778
RRIRDRPPRLPRPRPRPFEDPRP | 0.265
RRIRDRPPRLPRPRPRPFEVPRP | -0.0211
RRIRDRPPRLPRPRPRPFFQPRP | -0.24
RRIRDRPPRLPRPRPRPFFYPRP | -0.0714
RRIRDRPPRLPRPRPRPFGDPRP | -0.0062
RRIRDRPPRLPRPRPRPFGLPRP | -0.259
RRIRDRPPRLPRPRPRPFHTPRP | -0.569
RRIRDRPPRLPRPRPRPFIPPRP | -0.334
RRIRDRPPRLPRPRPRPFKPPRP | 0.00312
RRIRDRPPRLPRPRPRPFKRPRP | -0.00875
RRIRDRPPRLPRPRPRPFLGPRP | -0.0161
RRIRDRPPRLPRPRPRPFLSPRP | 0.0846
RRIRDRPPRLPRPRPRPFMIPRP | 0.0898
RRIRDRPPRLPRPRPRPFNEPRP | 0.0103
RRIRDRPPRLPRPRPRPFNNPRP | -0.226
RRIRDRPPRLPRPRPRPFQHPRP | -0.202
RRIRDRPPRLPRPRPRPFRAPRP | -0.0871

Sequence | shrunken log2 fold change
RRIRDRPPRLPRPRPRPFSGPRP | -0.214
RRIRDRPPRLPRPRPRPFSLPRP | -0.176
RRIRDRPPRLPRPRPRPFTKPRP | -0.262
RRIRDRPPRLPRPRPRPFTRPRP | -0.242
RRIRDRPPRLPRPRPRPFYFPRP | -0.262
RRIRDRPPRLPRPRPRPFYLPRP | -0.085
RRIRDRPPRLPRPRPRPGCQPRP | 0.341
RRIRDRPPRLPRPRPRPGCRPRP | 0.398
RRIRDRPPRLPRPRPRPGDCPRP | 0.0646
RRIRDRPPRLPRPRPRPGDSPRP | 0.13
RRIRDRPPRLPRPRPRPGEMPRP | 0.163
RRIRDRPPRLPRPRPRPGFEPRP | 0.175
RRIRDRPPRLPRPRPRPGKCPRP | -0.105
RRIRDRPPRLPRPRPRPGKEPRP | -0.0214
RRIRDRPPRLPRPRPRPGKNPRP | -0.543
RRIRDRPPRLPRPRPRPGKVPRP | -0.00262
RRIRDRPPRLPRPRPRPGLIPRP | 0.0516
RRIRDRPPRLPRPRPRPGLQPRP | 0.56
RRIRDRPPRLPRPRPRPGLTPRP | 0.262
RRIRDRPPRLPRPRPRPGLVPRP | 0.644
RRIRDRPPRLPRPRPRPGSMPRP | -0.403
RRIRDRPPRLPRPRPRPGSPPRP | 0.0355
RRIRDRPPRLPRPRPRPGTAPRP | 0.0777
RRIRDRPPRLPRPRPRPGTQPRP | 0.00934
RRIRDRPPRLPRPRPRPGTWPRP | 0.475
